Results on 13 molecules are retold here after publication PMC6234480.

Substitutions are numbered along the chain they refer to. In names and notes the source's numbering stands.

The target of assay [1] is human recombinant TACE (TNFα converting enzyme) (human) (UniProt P78536).
For assay [2], the target named is recombinant rat MMP9 (rat pro‐MMP9) (rat) (UniProt P50282).
Assay [3] deals with catalytic domain of human MMP9 (human).
Assay [4] deals with recombinant rat MMP2 (pro‐MMP2 activated with APMA) (rat).
In assay [5] the target is recombinant human MMP2 (pro‐MMP2 activated with APMA) (human).
Sequence of recombinant human MMP2 (pro‐MMP2 activated with APMA) (human) (P08253 30-660): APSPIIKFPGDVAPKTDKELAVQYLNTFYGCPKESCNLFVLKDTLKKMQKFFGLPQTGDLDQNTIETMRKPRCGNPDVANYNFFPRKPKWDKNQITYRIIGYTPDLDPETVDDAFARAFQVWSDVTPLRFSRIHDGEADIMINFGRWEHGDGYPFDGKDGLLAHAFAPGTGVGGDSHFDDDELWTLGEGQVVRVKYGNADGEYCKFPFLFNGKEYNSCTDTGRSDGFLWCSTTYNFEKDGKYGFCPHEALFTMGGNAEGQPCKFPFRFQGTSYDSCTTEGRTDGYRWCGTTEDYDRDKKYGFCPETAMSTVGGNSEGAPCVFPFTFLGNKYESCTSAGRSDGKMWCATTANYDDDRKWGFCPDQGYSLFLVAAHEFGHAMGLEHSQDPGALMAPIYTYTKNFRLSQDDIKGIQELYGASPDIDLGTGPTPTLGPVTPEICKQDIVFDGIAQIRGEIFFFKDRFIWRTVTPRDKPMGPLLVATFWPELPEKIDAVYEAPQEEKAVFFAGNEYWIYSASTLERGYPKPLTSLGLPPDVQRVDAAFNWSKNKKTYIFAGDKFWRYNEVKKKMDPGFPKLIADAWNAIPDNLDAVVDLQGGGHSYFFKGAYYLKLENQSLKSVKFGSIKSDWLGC

Sequence of UniProt P78536 (P78536 18-824): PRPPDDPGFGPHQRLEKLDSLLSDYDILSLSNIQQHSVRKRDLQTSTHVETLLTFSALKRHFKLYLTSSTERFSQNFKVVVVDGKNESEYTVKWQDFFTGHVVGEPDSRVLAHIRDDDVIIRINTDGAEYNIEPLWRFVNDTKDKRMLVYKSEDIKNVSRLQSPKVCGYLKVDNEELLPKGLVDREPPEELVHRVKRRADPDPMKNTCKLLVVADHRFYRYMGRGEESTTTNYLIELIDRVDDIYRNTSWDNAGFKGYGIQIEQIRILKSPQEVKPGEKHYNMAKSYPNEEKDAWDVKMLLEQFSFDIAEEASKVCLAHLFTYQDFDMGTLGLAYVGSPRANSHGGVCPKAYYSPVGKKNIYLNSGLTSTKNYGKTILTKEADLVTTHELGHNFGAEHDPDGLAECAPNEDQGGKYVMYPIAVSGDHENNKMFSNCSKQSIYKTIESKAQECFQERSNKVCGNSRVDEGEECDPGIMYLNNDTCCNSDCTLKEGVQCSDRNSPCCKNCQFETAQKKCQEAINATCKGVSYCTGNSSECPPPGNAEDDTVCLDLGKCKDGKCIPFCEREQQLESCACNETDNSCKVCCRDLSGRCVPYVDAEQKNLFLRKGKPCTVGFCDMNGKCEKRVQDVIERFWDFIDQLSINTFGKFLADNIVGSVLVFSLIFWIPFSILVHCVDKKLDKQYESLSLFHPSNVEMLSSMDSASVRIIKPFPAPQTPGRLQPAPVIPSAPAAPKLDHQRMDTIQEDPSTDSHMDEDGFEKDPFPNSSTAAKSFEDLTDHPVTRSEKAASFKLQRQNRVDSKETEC
Sequence of UniProt P50282 (P50282 20-708): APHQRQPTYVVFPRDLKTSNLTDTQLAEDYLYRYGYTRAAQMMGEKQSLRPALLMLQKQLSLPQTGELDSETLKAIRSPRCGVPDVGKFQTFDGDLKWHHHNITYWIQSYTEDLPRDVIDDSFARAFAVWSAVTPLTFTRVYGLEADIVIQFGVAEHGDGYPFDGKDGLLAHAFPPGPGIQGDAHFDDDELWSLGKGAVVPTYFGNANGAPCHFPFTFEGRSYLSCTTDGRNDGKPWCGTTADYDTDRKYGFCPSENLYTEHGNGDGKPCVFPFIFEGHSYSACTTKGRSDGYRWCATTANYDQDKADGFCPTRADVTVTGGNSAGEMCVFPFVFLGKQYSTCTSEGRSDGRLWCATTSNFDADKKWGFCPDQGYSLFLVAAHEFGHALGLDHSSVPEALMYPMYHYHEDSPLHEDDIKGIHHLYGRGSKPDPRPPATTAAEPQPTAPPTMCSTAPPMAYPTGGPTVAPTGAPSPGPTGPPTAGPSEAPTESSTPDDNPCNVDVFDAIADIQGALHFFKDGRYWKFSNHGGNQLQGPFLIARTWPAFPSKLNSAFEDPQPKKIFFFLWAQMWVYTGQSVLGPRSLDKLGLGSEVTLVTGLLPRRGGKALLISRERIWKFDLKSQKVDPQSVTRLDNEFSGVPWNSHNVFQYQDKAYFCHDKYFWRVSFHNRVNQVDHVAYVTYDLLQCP
Sequence of recombinant rat MMP2 (pro‐MMP2 activated with APMA) (rat) (P33436 110-662): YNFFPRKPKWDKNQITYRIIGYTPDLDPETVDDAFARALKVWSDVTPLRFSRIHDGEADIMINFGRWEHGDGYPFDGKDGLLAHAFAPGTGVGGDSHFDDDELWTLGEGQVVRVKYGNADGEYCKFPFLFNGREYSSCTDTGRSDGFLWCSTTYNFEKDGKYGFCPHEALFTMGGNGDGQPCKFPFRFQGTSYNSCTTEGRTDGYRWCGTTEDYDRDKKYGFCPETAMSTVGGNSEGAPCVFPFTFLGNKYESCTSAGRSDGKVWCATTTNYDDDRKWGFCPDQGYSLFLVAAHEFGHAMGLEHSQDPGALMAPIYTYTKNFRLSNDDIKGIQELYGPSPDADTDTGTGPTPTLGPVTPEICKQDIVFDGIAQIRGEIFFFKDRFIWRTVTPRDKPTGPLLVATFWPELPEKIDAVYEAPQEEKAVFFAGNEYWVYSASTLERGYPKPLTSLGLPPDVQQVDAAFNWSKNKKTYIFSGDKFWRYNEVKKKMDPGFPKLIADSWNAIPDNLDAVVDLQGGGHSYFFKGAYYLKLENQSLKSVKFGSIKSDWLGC
Sequence of catalytic domain of human MMP9 (human) (P14780 20-707): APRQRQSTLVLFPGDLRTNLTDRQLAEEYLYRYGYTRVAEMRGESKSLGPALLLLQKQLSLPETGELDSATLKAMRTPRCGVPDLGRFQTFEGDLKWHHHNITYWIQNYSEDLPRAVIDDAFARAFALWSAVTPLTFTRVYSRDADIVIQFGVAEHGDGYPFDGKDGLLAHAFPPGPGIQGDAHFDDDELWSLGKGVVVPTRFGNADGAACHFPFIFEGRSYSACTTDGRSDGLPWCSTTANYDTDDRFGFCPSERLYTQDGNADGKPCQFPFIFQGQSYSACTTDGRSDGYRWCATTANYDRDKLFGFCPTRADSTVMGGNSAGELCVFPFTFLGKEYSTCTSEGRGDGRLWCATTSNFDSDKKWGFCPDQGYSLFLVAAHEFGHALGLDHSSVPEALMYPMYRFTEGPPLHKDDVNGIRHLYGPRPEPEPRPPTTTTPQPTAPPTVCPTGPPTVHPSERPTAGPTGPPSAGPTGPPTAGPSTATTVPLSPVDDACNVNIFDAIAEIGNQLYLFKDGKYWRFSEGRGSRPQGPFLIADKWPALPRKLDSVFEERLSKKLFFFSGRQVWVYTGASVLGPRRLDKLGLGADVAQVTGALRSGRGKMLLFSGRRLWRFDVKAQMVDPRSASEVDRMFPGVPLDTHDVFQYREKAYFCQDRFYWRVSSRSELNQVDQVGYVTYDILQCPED

B1: N‐TIMP3 (13.9 kDa N‐domain; aa 1‐120) (domain or fragment)
chain: CTCSPSHPQDAFCNSDIVIRAKVVGKKLVKEGPFGTLVYTIKQMKMYRGFTKMPHVQYIHTEASESLCGLKLEVNKYQYLLTGRVYDGKMYTGLCNFVERWDQLTLSQRKGLNYRYHLGC
Consider B1, for which the IC50 of inhibition of human TACE activity (SensoLyte 520 TACE fluorimetric kit) in assay [1] came out at 59 nM. Further, the IC50 of inhibition of rat MMP9 activity (cleavage of 5-FAM/QXL 520 FRET peptide, 37°C) in assay [2] turned out to be 2.4 nM. In assay [3], this molecule displayed an IC50 of inhibition of human MMP9 activity (cleavage of 5-FAM/QXL 520 FRET peptide, 37°C) of 1.5 nM. Further, the IC50 of inhibition of rat MMP2 activity (cleavage of 5-FAM/QXL 520 FRET peptide, 90 min, 37°C) in assay [4] turned out to be 3.4 nM. For the same molecule, the IC50 of inhibition of human MMP2 activity (cleavage of 5-FAM/QXL 520 FRET peptide, 90 min, 37°C) in assay [5] is 5.8 nM.

B2: N‐PEG (PEGylated N‐TIMP3) (domain or fragment)
chain: B1 chain
modifications: PEG, size and site not stated
As to B2, in assay [1], the IC50 of inhibition of human TACE activity (SensoLyte 520 TACE fluorimetric kit) was 197 nM. Also, the IC50 of inhibition of rat MMP9 activity (cleavage of 5-FAM/QXL 520 FRET peptide, 37°C) in assay [2] amounted to 1.3 nM. The IC50 of inhibition of human MMP9 activity (cleavage of 5-FAM/QXL 520 FRET peptide, 37°C) in assay [3] stood at 0.7 nM. Besides, in assay [4], the IC50 of inhibition of rat MMP2 activity (cleavage of 5-FAM/QXL 520 FRET peptide, 90 min, 37°C) worked out at 1.7 nM. Further, the IC50 of inhibition of human MMP2 activity (cleavage of 5-FAM/QXL 520 FRET peptide, 90 min, 37°C) in assay [5] amounted to 9.8 nM.

B3: N‐Fc (N‐TIMP3 fused with Fc) (Fc fusion)
chain: B1 chain
With B3, in assay [3], the IC50 of inhibition of human MMP9 activity (cleavage of 5-FAM/QXL 520 FRET peptide, 37°C) is 1.6 nM. In assay [5], the IC50 of inhibition of human MMP2 activity (cleavage of 5-FAM/QXL 520 FRET peptide, 90 min, 37°C) was found to be 9.7 nM.

B4: N‐HSA (N‐TIMP3 fused with human serum albumin) (protein)
chain: B1 chain
As for B4, the IC50 of inhibition of human TACE activity (SensoLyte 520 TACE fluorimetric kit) in assay [1] worked out at 195 nM. Besides, the IC50 of inhibition of rat MMP9 activity (cleavage of 5-FAM/QXL 520 FRET peptide, 37°C) in assay [2] is 10.8 nM. The IC50 of inhibition of human MMP9 activity (cleavage of 5-FAM/QXL 520 FRET peptide, 37°C) in assay [3] was 1.1 nM. For the same molecule, in assay [4], the IC50 of inhibition of rat MMP2 activity (cleavage of 5-FAM/QXL 520 FRET peptide, 90 min, 37°C) turned out to be 3.6 nM. The IC50 of inhibition of human MMP2 activity (cleavage of 5-FAM/QXL 520 FRET peptide, 90 min, 37°C) in assay [5] came to 6 nM.

B5: Wild‐type TIMP3 (Tissue Inhibitor of Metalloproteinase 3) (natural protein)
chain: CTCSPSHPQDAFCNSDIVIRAKVVGKKLVKEGPFGTLVYTIKQMKMYRGFTKMPHVQYIHTEASESLCGLKLEVNKYQYLLTGRVYDGKMYTGLCNFVERWDQLTLSQRKGLNYRYHLGCNCKIKSCYYLPCFVTSKNECLWTDMLSNFGYPGYQSKHYACIRQKGGYCSWYRGWAPPDKSIINATDP
modifications: endogenous glycosylation site at Asn184
For B5, the IC50 of inhibition of human TACE activity (SensoLyte 520 TACE fluorimetric kit) in assay [1] was found to be 59 nM. For the same molecule, the IC50 of inhibition of rat MMP9 activity (cleavage of 5-FAM/QXL 520 FRET peptide, 37°C) in assay [2] was found to be 0.9 nM. The IC50 of inhibition of human MMP9 activity (cleavage of 5-FAM/QXL 520 FRET peptide, 37°C) in assay [3] worked out at 0.9 nM. The IC50 of inhibition of rat MMP2 activity (cleavage of 5-FAM/QXL 520 FRET peptide, 90 min, 37°C) in assay [4] worked out at 1.4 nM. Further, the IC50 of inhibition of human MMP2 activity (cleavage of 5-FAM/QXL 520 FRET peptide, 90 min, 37°C) in assay [5] was 0.6 nM.

B6: TIMP3v2 (K22S/F34N TIMP3) (natural protein)
chain: B5 chain with K22S, F34N
modifications: additional glycosylation site (F34N), >95% occupancy by mass spectrometry; endogenous glycosylation site at Asn184
Consider B6, for which the IC50 of inhibition of human TACE activity (SensoLyte 520 TACE fluorimetric kit) in assay [1] was found to be 341 nM. The IC50 of inhibition of rat MMP9 activity (cleavage of 5-FAM/QXL 520 FRET peptide, 37°C) in assay [2] stood at 15.5 nM. For the same molecule, the IC50 of inhibition of human MMP9 activity (cleavage of 5-FAM/QXL 520 FRET peptide, 37°C) in assay [3] turned out to be 6.9 nM. Also, in assay [4], the IC50 of inhibition of rat MMP2 activity (cleavage of 5-FAM/QXL 520 FRET peptide, 90 min, 37°C) amounted to 0.5 nM. In addition, in assay [5], the IC50 of inhibition of human MMP2 activity (cleavage of 5-FAM/QXL 520 FRET peptide, 90 min, 37°C) came out at 0.9 nM.

B7: v82‐HSA (TIMP3v82 fused with human serum albumin) (protein)
chain: B5 chain with H55N, Q57T, K71N, E73T, D87N, K89T, R115T
modifications: additional glycosylation sites
As for B7, the IC50 of inhibition of human TACE activity (SensoLyte 520 TACE fluorimetric kit) in assay [1] amounted to 145 nM. Besides, in assay [2], the IC50 of inhibition of rat MMP9 activity (cleavage of 5-FAM/QXL 520 FRET peptide, 37°C) was found to be 152 nM. This molecule showed an IC50 of inhibition of human MMP9 activity (cleavage of 5-FAM/QXL 520 FRET peptide, 37°C) in assay [3] of 7.4 nM. Moreover, in assay [4], the IC50 of inhibition of rat MMP2 activity (cleavage of 5-FAM/QXL 520 FRET peptide, 90 min, 37°C) was found to be 0.3 nM. Further, the IC50 of inhibition of human MMP2 activity (cleavage of 5-FAM/QXL 520 FRET peptide, 90 min, 37°C) in assay [5] worked out at 1.6 nM.

B8: v2‐Fc (TIMP3v2 fused with Fc) (Fc fusion)
chain: B5 chain with K22S, F34N
modifications: additional glycosylation site (F34N)
On to B8, for which the IC50 of inhibition of human TACE activity (SensoLyte 520 TACE fluorimetric kit) in assay [1] was determined as 618 nM. The IC50 of inhibition of rat MMP9 activity (cleavage of 5-FAM/QXL 520 FRET peptide, 37°C) in assay [2] turned out to be 36 nM. Further, in assay [3], the IC50 of inhibition of human MMP9 activity (cleavage of 5-FAM/QXL 520 FRET peptide, 37°C) was determined as 10 nM. Moreover, the IC50 of inhibition of rat MMP2 activity (cleavage of 5-FAM/QXL 520 FRET peptide, 90 min, 37°C) in assay [4] was found to be 0.9 nM. For the same molecule, the IC50 of inhibition of human MMP2 activity (cleavage of 5-FAM/QXL 520 FRET peptide, 90 min, 37°C) in assay [5] was 0.9 nM.

B9: WT‐HSA (wild‐type TIMP3 fused with human serum albumin) (protein)
chain: B5 chain
As to B9, in assay [1], the IC50 of inhibition of human TACE activity (SensoLyte 520 TACE fluorimetric kit) amounted to 12.1 nM. Moreover, the IC50 of inhibition of rat MMP9 activity (cleavage of 5-FAM/QXL 520 FRET peptide, 37°C) in assay [2] stood at 50.8 nM. In assay [3], this molecule had an IC50 of inhibition of human MMP9 activity (cleavage of 5-FAM/QXL 520 FRET peptide, 37°C) of 0.6 nM. Also, the IC50 of inhibition of rat MMP2 activity (cleavage of 5-FAM/QXL 520 FRET peptide, 90 min, 37°C) in assay [4] is 0.2 nM. Also, the IC50 of inhibition of human MMP2 activity (cleavage of 5-FAM/QXL 520 FRET peptide, 90 min, 37°C) in assay [5] stood at 0.8 nM.

B10: TIMP3v82 (H55N/Q57T/K71N/E73T/D87N/K89T/R115T) (natural protein)
chain: B5 chain with H55N, Q57T, K71N, E73T, D87N, K89T, R115T
modifications: additional glycosylation sites, site‐specific glycosylation confirmed by mass spec analysis (data not shown); endogenous glycosylation site at Asn184
As for B10, the IC50 of inhibition of human TACE activity (SensoLyte 520 TACE fluorimetric kit) in assay [1] amounted to 29 nM. The IC50 of inhibition of rat MMP9 activity (cleavage of 5-FAM/QXL 520 FRET peptide, 37°C) in assay [2] turned out to be 14.3 nM. The IC50 of inhibition of human MMP9 activity (cleavage of 5-FAM/QXL 520 FRET peptide, 37°C) in assay [3] came out at 2.3 nM. The IC50 of inhibition of rat MMP2 activity (cleavage of 5-FAM/QXL 520 FRET peptide, 90 min, 37°C) in assay [4] came out at 0.2 nM. In addition, in assay [5], the IC50 of inhibition of human MMP2 activity (cleavage of 5-FAM/QXL 520 FRET peptide, 90 min, 37°C) was 1 nM.

B11: v82‐Fc (v82 with Fc fused in the C‐terminus) (Fc fusion)
chain: B5 chain with H55N, Q57T, K71N, E73T, D87N, K89T, R115T
modifications: additional glycosylation sites
With B11, in assay [1], the IC50 of inhibition of human TACE activity (SensoLyte 520 TACE fluorimetric kit) is 156 nM. Also, the IC50 of inhibition of rat MMP9 activity (cleavage of 5-FAM/QXL 520 FRET peptide, 37°C) in assay [2] amounted to 77 nM. The molecule further gave an IC50 of inhibition of human MMP9 activity (cleavage of 5-FAM/QXL 520 FRET peptide, 37°C) in assay [3] of 10.5 nM. In assay [4], the IC50 of inhibition of rat MMP2 activity (cleavage of 5-FAM/QXL 520 FRET peptide, 90 min, 37°C) came to 1 nM. Further, the IC50 of inhibition of human MMP2 activity (cleavage of 5-FAM/QXL 520 FRET peptide, 90 min, 37°C) in assay [5] worked out at 2.7 nM.

B12: v2‐HSA (TIMP3v2 fused with human serum albumin) (protein)
chain: B5 chain with K22S, F34N
modifications: additional glycosylation site (F34N)
On to B12, for which the IC50 of inhibition of human TACE activity (SensoLyte 520 TACE fluorimetric kit) in assay [1] turned out to be 6800 nM. In addition, in assay [2], the IC50 of inhibition of rat MMP9 activity (cleavage of 5-FAM/QXL 520 FRET peptide, 37°C) amounted to 65 nM. Besides, in assay [3], the IC50 of inhibition of human MMP9 activity (cleavage of 5-FAM/QXL 520 FRET peptide, 37°C) amounted to 16 nM. Also, in assay [4], the IC50 of inhibition of rat MMP2 activity (cleavage of 5-FAM/QXL 520 FRET peptide, 90 min, 37°C) came to 0.7 nM. Further, the IC50 of inhibition of human MMP2 activity (cleavage of 5-FAM/QXL 520 FRET peptide, 90 min, 37°C) in assay [5] was 5.1 nM.

B13: v2‐PEG (TIMP3v2 PEGylated with 20 kDa polyethylene glycol) (natural protein)
chain: B5 chain with K22S, F34N
modifications: 20 kDa polyethylene glycol (PEG), site not stated; additional glycosylation site (F34N)
Turning to B13, the IC50 of inhibition of human TACE activity (SensoLyte 520 TACE fluorimetric kit) in assay [1] was 123 nM. Besides, the IC50 of inhibition of rat MMP9 activity (cleavage of 5-FAM/QXL 520 FRET peptide, 37°C) in assay [2] came out at 60 nM. In assay [3], this molecule gave an IC50 of inhibition of human MMP9 activity (cleavage of 5-FAM/QXL 520 FRET peptide, 37°C) of 9 nM. Besides, in assay [4], the IC50 of inhibition of rat MMP2 activity (cleavage of 5-FAM/QXL 520 FRET peptide, 90 min, 37°C) is 0.1 nM. The IC50 of inhibition of human MMP2 activity (cleavage of 5-FAM/QXL 520 FRET peptide, 90 min, 37°C) in assay [5] turned out to be 0.4 nM.
